Laboratory results: US20230346948A1, “Lipid conjugated peptide inhibitors of PICK1” (University of Copenhagen, priority 2020, published 2023)

Key:
[1] = test system: diabetic neuropathy (STZ model); conditions: 5MPK, at +2 h
Procedure: Diabetic neuropathy (STZ) model. Diabetes is induced by a single IP injection of […]. Streptozocin solution (100 μl/10 g, Sigma-aldrich S0130, batch #WXBB7152V). Glycemia is tested before, and 7 days after injection.
The mechanical threshold response of the operated mice was measured with calibrated von Frey filaments (“up/down” method) and the 50% threshold (g) was calculated. The experimenter was blinded to mice treatment. […] Compounds were diluted in PBS (vehicle) and administered s.c. at 10 μL/g, in doses as indicated (gabapentine, 5MPK). Statistical analysis was performed using GraphPad Prism 6.0.

[2] = Plasma exposure of biotinylated peptide after s.c. injection, ELISA; assay type: in vivo, mice; conditions: male, C57bl6N, mouse, sc, s.c. 10 μmol/kg, read-out: time of peak plasma concentration (converted)
Procedure: Blood sample collection. Biotinylated TAT-di-PEG4-DATC5 (biot-TPD5; 34 mg/kg=[…]) or Biotinylated myr-di-PEG4-DATC5 (biot-mPD5; […]) diluted in 0.9% NaCl was injected s.c in 8 weeks old male C57bl6N mice (18 mice in total) once, and blood samples were collected after 15 min, 30 min, 1 h, 2 h and 6 h (blood samples from 6 mice per timepoint) using Aprotinine-containing BD Vacutainer®K3EDTA tubes (BD Diagnostics). The blood samples were centrifuged at 3500 RPM for 15 min at 4° C. and the plasma was collected in new tubes and freezed down at −20° C.
ELISA. A 96 well NUNC IMMOBILIZER (Cat. No. 436006) plate was coated with 15 μg/mL […] (Sigma-Aldrich, Product no. A8549) diluted in 100 mM sodium carbonate buffer (pH 9.6) and incubated for 2 h at room temperature on shaker. After incubation the plate was washed with PBS-T (1× phosphate buffered saline with 0.1% TWEEN® 20 (Sigma-Aldrich)) 3×, 1 washing step overnight at room temperature on shaker. […] The plate was read at 450 nm (and 570 nm) on a Wallac VICTOR2 1420 Multilabel Counter from PerkinElmer (Hvidovre, Denmark). The measured absorbance was calibrated to a standard curve generated from standard dilutions of biot-TPD5.

purified PICK1 = molecular target: T1, purified PICK1 (Rattus norvegicus, UniProt Q9EP80); experiment: Fluorescence polarization competition, substituted peptide libraries; assay type: binding; conditions: relative to HWLKV; tracer 5FAM-HWLKV 20 nM
T1 construct: Full length rat PICK1 (pET41) was prepared as described earlier; inferred from pET41 vector and Glutathione-Sepharose capture) (N, cleaved yes); made in house; host or cells: E. coli BL21-DE3-pLysS
T1 sequence (Q9EP80 whole entry): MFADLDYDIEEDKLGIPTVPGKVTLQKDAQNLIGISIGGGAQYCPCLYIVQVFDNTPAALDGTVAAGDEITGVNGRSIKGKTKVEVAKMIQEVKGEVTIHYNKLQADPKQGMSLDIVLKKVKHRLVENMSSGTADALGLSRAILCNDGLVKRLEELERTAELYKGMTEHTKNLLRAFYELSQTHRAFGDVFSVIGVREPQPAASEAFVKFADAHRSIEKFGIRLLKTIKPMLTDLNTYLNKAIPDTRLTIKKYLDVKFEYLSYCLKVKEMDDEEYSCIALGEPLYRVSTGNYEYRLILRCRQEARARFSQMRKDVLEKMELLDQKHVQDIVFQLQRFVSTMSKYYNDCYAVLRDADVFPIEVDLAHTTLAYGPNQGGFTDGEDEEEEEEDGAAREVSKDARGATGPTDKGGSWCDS
Procedure: Full length rat PICK1 (pET41) was prepared as described earlier (Madsen et al., 2005). In brief, PICK1 was expressed in BL21-DE3-pLysS cells and grown at 37° C., induced at OD600=0.6 with 1 mM Isopropyl β-D-1-thiogalactopyranoside (IPTG) and grown 16 hrs at 20° C. Cultures were harvested and re-suspended in 50 mM trisaminomethane (Tris), 125 mM NaCl, 2 mM Dithiothreitol (DTT, Sigma), 1% Triton X-100 (Sigma), 20 μg/mL DNAse 1 and ½ a tablet cOmplete protease inhibitor cocktail (Roche) pr. 1 L culture. The re-suspended pellets were frozen at −80° C. for later purification. The lysate was cleared by centrifugation (36,000×g for 30 min at 4° C.), and the supernatant was incubated with Glutathione-Sepharose 4B beads (GE Healthcare) for 2 hrs at 4° C. under gentle rotation and then centrifuged at 4,000×g for 5 min. The supernatant was removed and the beads were washed twice in 35 mL 50 mM Tris, 125 mM NaCl, 2 mM DTT and 0.01% Triton-X100. The beads were transferred to PD-10 Bio-Spine Chromatography columns (Bio-Rad) and washed with an additional 3 column volumes. Each column was sealed and 0.075 U/μL, Novagen® was added for cleavage 0/N at 4° C. under gentle rotation. PICK1 was eluted on ice and absorption at 280 nm was measured on TECAN plate reader or on a NanoDrop3000. The protein concentration was determined using lambert beers law (A=εcl), εA280PICK1=32320 (cm*mol/L)^−1.
The plate was incubated 20 min on ice in a black half-area Corning Black non-binding surface 96-well plate and the fluorescence polarization was measured directly on a Omega POLARstar plate reader using excitation filter at 488-nm and long pass emission filter at 535-nm.

Compound | fold affinity change, combinatorial peptide library (purified PICK1) | also measured
CC(C)C[C@H](CN)CC(=O)O [Pregabalin, reference compound] | – | maximum reversal of mechanical response threshold [1]: 84.7±10.5 % of baseline
CC(C)C[C@H](NC(=O)[C@H](Cc1c[nH]c2ccccc12)NC(=O)[C@H](Cc1c[nH]cn1)NC(=O)CCOCCOCCN(CCOCCOCCC(=O)N[C@@H](Cc1c[nH]cn1)C(=O)N[C@@H](Cc1c[nH]c2ccccc12)C(=O)N[C@@H](CC(C)C)C(=O)N[C@@H](CCCCN)C(=O)N[C@H](C(=O)O)C(C)C)C(=O)[C@H](CCCNC(=N)N)NC(=O)[C@H](CCCNC(=N)N)NC(=O)[C@H](CCCNC(=N)N)NC(=O)[C@H](CCC(N)=O)NC(=O)[C@H](CCCNC(=N)N)NC(=O)[C@H](CCCNC(=N)N)NC(=O)[C@H](CCCCN)NC(=O)[C@H](CCCCN)NC(=O)[C@H](CCCNC(=N)N)NC(=O)CNC(=O)[C@H](Cc1ccc(O)cc1)NC(=O)CCCC[C@@H]1SC[C@@H]2NC(=O)N[C@@H]21)C(=O)N[C@@H](CCCCN)C(=O)N[C@H](C(=O)O)C(C)C [biotinylated Tat-NPEG4-(HWLKV)2] | – | Tmax [2]: 30 min
EIRV (DAT-C5 variant) [4-mer peptide of combinatorial library] | optimal 4-mer sequences | –
IIV [3-mer peptide of combinatorial library] | optimal 3-mer sequences | –
IRV [3-mer peptide of combinatorial library] | optimal 3-mer sequences | –
NSVRV (DAT-C5 variant) [5-mer peptide of combinatorial library] | optimal 5-mer sequences | –
TSIRV (DAT-C5 variant) [5-mer peptide of combinatorial library] | optimal 5-mer sequences | –
YIIV (DAT-C5 variant) [4-mer peptide of combinatorial library] | optimal 4-mer sequences | –
